Consider one molecule from patent US20210322564A1 (ADC THERAPEUTICS, published 2021).

The target of this assay is T1, CD19 (human, UniProt P15391 20-556).
T1 sequence (looked up): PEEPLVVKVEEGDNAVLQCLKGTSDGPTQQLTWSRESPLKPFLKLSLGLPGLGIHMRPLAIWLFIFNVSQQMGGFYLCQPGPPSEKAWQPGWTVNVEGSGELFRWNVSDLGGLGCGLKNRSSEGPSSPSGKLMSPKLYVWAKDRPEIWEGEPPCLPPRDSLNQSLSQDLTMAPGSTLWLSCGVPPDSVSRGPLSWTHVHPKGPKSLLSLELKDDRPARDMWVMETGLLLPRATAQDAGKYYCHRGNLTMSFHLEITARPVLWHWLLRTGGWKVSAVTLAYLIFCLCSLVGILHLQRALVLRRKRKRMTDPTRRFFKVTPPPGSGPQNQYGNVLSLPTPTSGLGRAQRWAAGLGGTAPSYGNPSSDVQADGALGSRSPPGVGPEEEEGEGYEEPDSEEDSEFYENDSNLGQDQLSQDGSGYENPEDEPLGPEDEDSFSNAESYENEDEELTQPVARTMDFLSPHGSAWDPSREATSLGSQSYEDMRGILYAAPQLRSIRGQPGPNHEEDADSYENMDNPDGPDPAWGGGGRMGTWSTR
As to the kind of experiment: cell-based or functional assay.

B1: ADCx19 (antibody, V domains shown)
VH: QVQLVQPGAEVVKPGASVKLSCKTSGYTFTSNWMHWVKQAPGQGLEWIGEIDPSDSYTNYNQNFQGKAKLTVDKSTSTAYMEVSSLRSDDTAVYYCARGSNPYYYAMDYWGQGTSVTVS
VL: EIVLTQSPAIMSASPGERVTMTCSASSGVNYMHWYQQKPGTSPRRWIYDTSKLASGVPARFSGSGSGTSYSLTISSMEPEDAATYYCHQRGSYTFGGGTKLEIK
modifications: pyrrolobenzodiazepine (PBD) dimer warhead attached via a cleavable linker, DAR 2+/-0.3; attachment residues not stated
On to B1, for which the “IC50, MTT proliferation assay, 96 h exposure, median over 48 B-cell lymphoma cell lines” value came out at 4 pM.
